From the supplement of paper PMC9112550, “Optimization of the antimicrobial peptide Bac7 by deep mutational scanning” (BMC Biology, 2022)

The sequences below were run on Escherichia coli TOP10 (assay: shrunken log2 fold change of peptide-encoding DNA abundance (4.5 h post-induction vs induction); higher = less antimicrobial activity (less host growth inhibition)). Conditions: time post-induction: 4.5 h; library: site-saturation at positions 5, 18, 19, 20.
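Note: peptides expressed intracellularly from a pBAD plasmid library in pooled LB shake-flask culture, induced with 0.3% L-arabinose, DNA abundance read by NGS, three biological replicates, DESeq2 with apeglm shrinkage.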

In order of rising “shrunken log2 fold change” value:
1. RRIRWRPPRLPRPRPRPMYHPRP  -0.712
2. RRIRHRPPRLPRPRPRPFYNPRP  -0.632
3. RRIRYRPPRLPRPRPRPIILPRP  -0.605
4. RRIRYRPPRLPRPRPRPCIFPRP  -0.559
5. RRIRQRPPRLPRPRPRPCHMPRP  -0.519
6. RRIRKRPPRLPRPRPRPHTSPRP  -0.469
7. RRIRFRPPRLPRPRPRPYWSPRP  -0.428
8. RRIRMRPPRLPRPRPRPFTPPRP  -0.397
9. RRIRSRPPRLPRPRPRPNWYPRP  -0.382
10. RRIRMRPPRLPRPRPRPYNRPRP  -0.336
11. RRIRCRPPRLPRPRPRPDMSPRP  -0.329
12. RRIRHRPPRLPRPRPRPKGHPRP  -0.311
13. RRIRCRPPRLPRPRPRPHYTPRP  -0.311
14. RRIRNRPPRLPRPRPRPSWVPRP  -0.289
15. RRIRRRPPRLPRPRPRPMNHPRP  -0.281
16. RRIRFRPPRLPRPRPRPDLHPRP  -0.274
17. RRIRWRPPRLPRPRPRPQYQPRP  -0.268
18. RRIRFRPPRLPRPRPRPMHDPRP  -0.236
19. RRIRPRPPRLPRPRPRPDVNPRP  -0.233
20. RRIRPRPPRLPRPRPRPYAYPRP  -0.192
21. RRIRHRPPRLPRPRPRPFTGPRP  -0.171
22. RRIRQRPPRLPRPRPRPAINPRP  -0.171
23. RRIRFRPPRLPRPRPRPIYAPRP  -0.143
24. RRIRARPPRLPRPRPRPAWNPRP  -0.132
25. RRIRVRPPRLPRPRPRPAFTPRP  -0.124
26. RRIRIRPPRLPRPRPRPTMSPRP  -0.124
27. RRIRTRPPRLPRPRPRPSIFPRP  -0.122
28. RRIRQRPPRLPRPRPRPNGYPRP  -0.121
29. RRIRPRPPRLPRPRPRPFFDPRP  -0.12
30. RRIRMRPPRLPRPRPRPQLSPRP  -0.102
31. RRIRHRPPRLPRPRPRPKRCPRP  -0.0661
32. RRIRERPPRLPRPRPRPRIGPRP  -0.0649
33. RRIRTRPPRLPRPRPRPCLQPRP  -0.0598
34. RRIRARPPRLPRPRPRPMWYPRP  -0.0479
35. RRIRTRPPRLPRPRPRPCQAPRP  -0.0455
36. RRIRTRPPRLPRPRPRPETCPRP  -0.0408
37. RRIRARPPRLPRPRPRPCFMPRP  -0.0304
38. RRIRHRPPRLPRPRPRPGNNPRP  -0.00857
39. RRIRHRPPRLPRPRPRPQAMPRP  -0.00822
40. RRIRERPPRLPRPRPRPYGKPRP  -0.00133
41. RRIRHRPPRLPRPRPRPSFWPRP  0.00023
42. RRIRQRPPRLPRPRPRPYEPPRP  0.00408
43. RRIRARPPRLPRPRPRPEDLPRP  0.0217
44. RRIRKRPPRLPRPRPRPFQWPRP  0.0233
45. RRIRLRPPRLPRPRPRPRYDPRP  0.0436
46. RRIRGRPPRLPRPRPRPKMAPRP  0.0451
47. RRIRLRPPRLPRPRPRPCTWPRP  0.0461
48. RRIRERPPRLPRPRPRPLVVPRP  0.0509
49. RRIRVRPPRLPRPRPRPHEKPRP  0.0571
50. RRIRWRPPRLPRPRPRPRRNPRP  0.0585
51. RRIRYRPPRLPRPRPRPLEKPRP  0.0601
52. RRIRLRPPRLPRPRPRPQEVPRP  0.0641
53. RRIRARPPRLPRPRPRPWTQPRP  0.0723
54. RRIRMRPPRLPRPRPRPHKQPRP  0.0796
55. RRIRHRPPRLPRPRPRPAEFPRP  0.108
56. RRIRLRPPRLPRPRPRPDYSPRP  0.14
57. RRIRGRPPRLPRPRPRPIWKPRP  0.155
58. RRIRQRPPRLPRPRPRPVFPPRP  0.212
59. RRIRWRPPRLPRPRPRPKPRPRP  0.236
60. RRIRTRPPRLPRPRPRPARQPRP  0.263
61. RRIRQRPPRLPRPRPRPNFFPRP  0.313
62. RRIRARPPRLPRPRPRPSFEPRP  0.327
63. RRIRIRPPRLPRPRPRPRAPPRP  0.347
64. RRIRHRPPRLPRPRPRPARWPRP  0.386
65. RRIRSRPPRLPRPRPRPVLGPRP  0.447
66. RRIRDRPPRLPRPRPRPEGDPRP  0.502
67. RRIRLRPPRLPRPRPRPVRSPRP  0.53
68. RRIRFRPPRLPRPRPRPPEPPRP  0.54
69. RRIRWRPPRLPRPRPRPAAGPRP  0.545
70. RRIRGRPPRLPRPRPRPIVQPRP  0.606
71. RRIRVRPPRLPRPRPRPPPHPRP  0.676
72. RRIRFRPPRLPRPRPRPEEEPRP  0.78
73. RRIRWRPPRLPRPRPRPLCLPRP  0.949
74. RRIRDRPPRLPRPRPRPTREPRP  1.46
75. RRIRMRPPRLPRPRPRPDTSPRP  1.47
